How the values were obtained:
[1] = Biodistribution in AR42J tumor-bearing mice; format: in vivo; conditions: mouse, in vivo
[2] = tested on: AR42J rat pancreatic cancer cells; assay: Internalization studies of 68Ga-labeled conjugates in AR42J cells; format: cell-based; conditions: 37 °C, 10-120 min, ~0.7 nM; reference 68Ga-DOTATOC; Fig. 2
[3] = tested on: AR42J tumor bearing athymic nude mice; assay: Biodistribution in AR42J tumor-bearing mice; format: in vivo
[4] = cited from earlier work
[5] = cited from earlier work; remark: listed apart in the source

## C[C@@H](O)[C@@H]1NC(=O)[C@H](CCCCN)NC(=O)[C@@H](Cc2c[nH]c3ccccc23)NC(=O)[C@H](Cc2ccc(O)cc2)NC(=O)[C@@H](NC(=O)[C@@H](Cc2ccccc2)NC(=O)CN2CCN(CC(=O)O)CCN(CC(=O)O)CCN(CC(=O)O)CC2)CSSC[C@@H](C(=O)N[C@H](CO)[C@@H](C)O)NC1=O [^68Ga-DOTATOC, metal not drawn, reference compound]
[1]; iv, kidney uptake
  tissue uptake at 0.5 h: 11.3 ± 2.07 %ID/g
  tissue uptake at 2 h: 7.33 ± 1.28 %ID/g
[1]; iv, liver uptake
  tissue uptake at 0.5 h: 0.74 ± 0.18 %ID/g
  tissue uptake at 2 h: 4.37 ± 0.2 %ID/g
[1]; tumor uptake
  tissue uptake at 1 h: 13.5 ± 6.28 %ID/g

## C[C@@H](O)[C@@H]1NC(=O)[C@H](CCCCN)NC(=O)[C@@H](Cc2c[nH]c3ccccc23)NC(=O)[C@H](Cc2ccc(O)cc2)NC(=O)[C@@H](NC(=O)[C@@H](Cc2ccccc2)NC(=O)CCC(C(=O)O)N2CCN(C(CCC(=O)O)C(=O)O)CCN(C(CCC(=O)O)C(=O)O)CC2)CSSC[C@@H](C(=O)N[C@H](CO)[C@@H](C)O)NC1=O (stereo partly drawn) [^68Ga-3, metal not drawn]
[2]
  Internalization in AR42J cells (time course): negligible
[1]; 5 µCi, tumor uptake, 1 h p.i., AR42J xenograft, n=4
  tissue uptake at 1 h: 2.95 ± 0.62 %ID/g
[1]; 5 µCi, tumor uptake, 2 h p.i., AR42J xenograft, n=4
  tissue uptake at 2 h: 0.83 ± 0.1 %ID/g
[1]; iv, 5 µCi, kidney uptake, 30 min p.i., n=4
  tissue uptake at 0.5 h: 13.8 ± 2.22 %ID/g
[1]; iv, 5 µCi, kidney uptake, 2 h p.i., n=4
  tissue uptake at 2 h: 5.24 ± 1.03 %ID/g
[1]; iv, 5 µCi, liver uptake, 30 min p.i., n=4
  tissue uptake at 0.5 h: 0.51 ± 0.05 %ID/g
[3]; 1 h p.i., vs 68Ga-DOTATOC, 68Ga-NO2ATOC and 68Ga-2 (P<0.01), Fig. 5
  tumor/stomach ratio: significantly higher
[3]; 2 h p.i.
  tumor retention rate: 19%
[3]; 2 h p.i. relative to 30 min p.i.
  retention of the initial kidney uptake: less than 52%

## SST-28: physiological form of somatostatin, natural SSTR ligand
[4]
  biological half-life: 2–4 min

## C[C@@H](O)[C@@H]1NC(=O)[C@H](CCCCN)NC(=O)[C@@H](Cc2c[nH]c3ccccc23)NC(=O)[C@H](Cc2ccc(O)cc2)NC(=O)[C@@H](NC(=O)[C@@H](Cc2ccccc2)NC(=O)CCC(C(=O)O)N2CCN(CC(=O)O)CCN(CC(=O)O)CC2)CSSC[C@@H](C(=O)N[C@H](CO)[C@@H](C)O)NC1=O (stereo partly drawn) [^68Ga-1, metal not drawn]
[1]; iv, kidney uptake
  tissue uptake at 0.5 h: 22.8 ± 2.22 %ID/g
  tissue uptake at 2 h: 9.79 ± 1.9 %ID/g
[1]; iv, liver uptake
  tissue uptake at 0.5 h: 0.81 ± 0.09 %ID/g
[1]; tumor uptake
  tissue uptake at 1 h: 22.3 ± 3.22 %ID/g
  tissue uptake at 2 h: 12.8 ± 4.65 %ID/g
[3]; mouse, in vivo
  tumor retention rate: 55%
  tumor/kidney ratio: significantly higher
  tumor/liver ratio: significantly higher

## O=C([O-])CN1CCN(CC(=O)[O-])CCN(CC(=O)[O-])CC1.[Ga+3] [NOTA-Ga(III)]
[5]
  log K (thermodynamic stability of the Ga(III) complex): 31.0

## C[C@@H](O)[C@@H]1NC(=O)[C@H](CCCCN)NC(=O)[C@@H](Cc2c[nH]c3ccccc23)NC(=O)[C@H](Cc2ccc(O)cc2)NC(=O)[C@@H](NC(=O)[C@@H](Cc2ccccc2)NC(=O)CCC(C(=O)O)N2CCN(CC(=O)O)CCN(C(CCC(=O)O)C(=O)O)CC2)CSSC[C@@H](C(=O)N[C@H](CO)[C@@H](C)O)NC1=O (stereo partly drawn) [^68Ga-2, metal not drawn]
[2]
  Internalization in AR42J cells (time course): significantly decreased
[1]; iv, kidney uptake
  tissue uptake at 0.5 h: 18.2 ± 1.84 %ID/g
  tissue uptake at 2 h: 8.22 ± 2.29 %ID/g
[1]; iv, liver uptake
  tissue uptake at 0.5 h: 1.38 ± 0.11 %ID/g
[1]; tumor uptake
  tissue uptake at 1 h: 7.87 ± 0.41 %ID/g
  tissue uptake at 2 h: 1.78 ± 0.15 %ID/g
[3]; mouse, in vivo
  tumor retention rate: 24%

## O=C([O-])CN1CCN(CC(=O)[O-])CCN(CC(=O)O)CCN(CC(=O)[O-])CC1.[Ga+3] [DOTA-Ga(III)]
[5]
  log K (thermodynamic stability of the Ga(III) complex): 21.3

## SST-14: physiological form of somatostatin, natural SSTR ligand
[4]
  biological half-life: 2–4 min
